According to patent US20070269486A1, “Methods and Devices for Reducing Tissue Damage After Ischemic Injury” (priority 2005, published 2007):

Assay: retention of insulin bioactivity when delivered in PLGA
Conditions: delivered in poly(lactide-co-glycolide) (PLGA)
Description: Insulin is a hormone which improves glycolic metabolism and ATP production. Insulin also may act as a vasodilator, an anti-inflammatory, and an antiplatelet agent. Thus, insulin acts by several mechanisms to decrease infarct size by reducing inflammation, slowing the rate of ischemic necrosis, decreasing circulating levels of FFA and myocardial FFA uptake, restoring myocardial glycogen stores and improving contractile function. The insulin can be human, non-human, or synthetic and can be complete or fragments. Preferably the insulin is a stable, short acting form which is resistant to radiation. Insulin in its crystalline form may be used for improved resistance to radiation. When the insulin is combined with a polymer an agent may be added to preserve bioactivity. […] For substantially longer administration periods, an antacid or other agent may be used to maintain a required pH for continued bioactivity from a PLGA matrix.
Protein or peptide drugs can be human, non-human, recombinant or synthetic and can be the full length native form or an active fragment thereof. Preferably the insulin is a stable, short acting form which is resistant to radiation. Insulin in its crystalline form may be used for improved resistance to radiation. When the insulin is combined with a polymer, an agent may be added to preserve bioactivity. […]

insulin
period over which bioactivity is retained: at least 24 hours
